Laboratory results published in patent US9327008B2, “Cell-permeant peptide-based inhibitor of kinases” (Purdue Research Foundation, priority 2008, dated 2016).
Non-standard residues stand in square brackets, D forms with d. No end group written: not given here.

What was measured:
MK2 [1] = target: MK2 (Homo sapiens, UniProt P49137); assay: Omnia fluorescence-based kinase activity assay for MAPKAP-K2 (reaction velocity); assay type: biochemical; parameters: purchased Invitrogen; details: for MK2 inhibition (in words): PTD peptide alone, 12.5-100 μM
Experimental: The Omnia® Kinase Assay for MAPKAP-K2 kit (Invitrogen, Carlsbad, Calif.), was used to determine the reaction velocity for MK2 in the presence and absence of each of the peptides listed in Table 1. The kit contains a proprietary reaction buffer to which the following were added (final concentrations are given): 1 mM ATP, 0.2 mM DTT, 10 μM MAPKAP-K2 Sox-modified peptide substrate, 5 ng MK2, and the inhibitor peptide of interest (final volume of 50 μL). Human MK2 was purchased from Invitrogen. The reactions were performed at 30° C. in the wells of a low-protein-binding 96-well plate provided with the kit, and fluorescence readings (excitation=360 nm, emission=485 nm) were taken every 30 seconds for 20 minutes using a SpectraMax M5 Spectrophotometer (Molecular Devices). Reaction velocity was determined for each reaction well from the slope of a plot of relative fluorescence units versus time. Each inhibitor peptide was tested at least at four concentrations, 12.5, 25, 50 and […], in triplicate.
In Table 1, “a” represents that the results shown are for 100 μM for all peptides; “b” represents the percentage change in MK2 reaction velocity versus the unsubstituted peptide ([…]) [SEQ ID NO: 13] at a concentration of 100 μM; “c” represents the error reported as the standard deviation between three samples.

[2] = tested on: IL-1β induced IL-6 expression in mesothelial cells (CRL-9444); assay: IL-6 ELISA, mesothelial cells induced with IL-1β; assay type: cell-based; details: IL-1β 1 ng/ml; Rottlerin 1 μM
[3] = tested on: IL-6 expression induced by TNF-α in mesothelial cells (CRL-9444); assay: IL-6 ELISA, mesothelial cells induced with TNF-α; assay type: cell-based
Experimental: A cell line of pleural mesothelial cells (CRL-9444) was purchased from American Type Culture Collection. Cells were maintained and seeded in Medium 199 with Earle's BSS and 0.75 mM L-glutamine (Mediatech, Inc., Manassas, Va.), 1.25 g/L sodium bicarbonate (Sigma, St. Louis, Mo.), 3.3 nM epidermal growth factor (MBL International, Woburn, Mass.), 40 nM hydrocortisone (Sigma), 870 nM insulin (MBL International), 20 mM HEPES (Sigma), trace elements mixture B (Mediatech, Inc.), 10% fetal bovine serum (FBS) (Hyclone, Waltham, Mass.) and 1% penicillin/streptomycin (Mediatech, Inc.). Prior to treating cells with therapeutic inhibitor peptides, cells were allowed to acclimate in serum-free media consisting of only Medium 199 with Earle's BSS. L-glutamine, sodium bicarbonate, HEPES, trace elements mixture B, and penicillin/streptomycin (concentrations and suppliers as above) for 24 hours prior to treatment with cytokines and/or inhibitor peptides. […]
Standards (from 2 ng/ml to zero) and samples were prepared in diluent, immediately added to each well in triplicate, and incubated at room temperature for at least 2 hours on a plate shaker adjusted to 300 rpm. […] Hoeschst 33342 nuclear stain (Invitrogen) was used to quantify cell number on the basis of DNA quantity. […]
Results are presented as means±standard deviation. […] Significant differences were analyzed with Tukey HSD post hoc comparisons. […]

MK2 [4] = details: commercially available inhibitor; kinase not named at the place, used as inhibitor of MK2 (and PRAK); cited from earlier work
CaMKIV = CaMKIV (Homo sapiens, UniProt Q16566); details: AIP 1 μM; cited from earlier work
PKA = details: AIP 1 μM; cited from earlier work
PKC = details: AIP 1 μM; cited from earlier work
[5] = tested on: Ca2+/calmodulin-dependent protein kinase II (CaMKII); details: cited from earlier work
[6] = 100 μM peptide, percentage change in MK2 reaction velocity versus unsubstituted KALNRQLGVAA at 100 μM, SD of three samples

Chain of MK2 (Homo sapiens, UniProt P49137) (P49137 whole entry): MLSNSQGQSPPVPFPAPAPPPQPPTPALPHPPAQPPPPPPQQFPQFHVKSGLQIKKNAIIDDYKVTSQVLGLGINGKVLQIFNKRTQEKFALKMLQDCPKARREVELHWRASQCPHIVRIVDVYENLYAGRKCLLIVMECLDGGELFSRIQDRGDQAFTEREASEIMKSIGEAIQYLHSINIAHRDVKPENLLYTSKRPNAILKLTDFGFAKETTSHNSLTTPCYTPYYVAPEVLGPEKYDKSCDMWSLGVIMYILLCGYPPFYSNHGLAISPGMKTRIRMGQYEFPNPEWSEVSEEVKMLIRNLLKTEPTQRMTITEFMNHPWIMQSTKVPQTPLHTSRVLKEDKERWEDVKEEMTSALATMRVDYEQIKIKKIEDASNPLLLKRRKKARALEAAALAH
Chain of CaMKIV (Q16566 whole entry, species assumed): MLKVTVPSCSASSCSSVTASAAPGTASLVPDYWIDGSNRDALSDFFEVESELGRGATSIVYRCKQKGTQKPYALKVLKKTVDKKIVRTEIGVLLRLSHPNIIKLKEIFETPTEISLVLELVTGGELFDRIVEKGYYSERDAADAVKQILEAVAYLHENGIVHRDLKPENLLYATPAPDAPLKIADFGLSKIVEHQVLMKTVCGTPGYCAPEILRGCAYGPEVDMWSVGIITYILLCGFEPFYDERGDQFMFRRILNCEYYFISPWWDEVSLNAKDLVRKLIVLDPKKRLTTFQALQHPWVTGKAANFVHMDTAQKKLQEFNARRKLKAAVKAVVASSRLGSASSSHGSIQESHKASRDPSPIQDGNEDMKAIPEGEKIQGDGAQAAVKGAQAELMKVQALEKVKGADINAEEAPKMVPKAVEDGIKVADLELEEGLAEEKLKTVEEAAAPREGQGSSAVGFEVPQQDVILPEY

Row | Compound | percent change in MK2 reaction velocity versus unsubstituted peptide (MK2 [1]; [6]) | further results
1 | KALNAQLGVAA [therapeutic domain, alanine substitution] | +258(14) % | –
2 | CC(=O)c1c(O)c(C)c(O)c(Cc2c(O)c3c(c(C(=O)/C=C/c4ccccc4)c2O)OC(C)(C)C=C3)c1O [Rottlerin] | – | IL-1β induced IL-6 expression (FIG. 7) [2]: significantly reduced; time at which significant reduction of IL-1β induced IL-6 expression occurs [2]: 12 h; level of expression of IL-6 induced by TNF-α (FIG. 8) ([3]; TNF-α 1 ng/ml): ineffective; level of expression of IL-6 induced by TNF-α (FIG. 9) ([3]; TNF-α 10 ng/ml, initially, from 6-12 hours): minimal reduction; IC50 (MK2 [4]): 5 µM
3 | KALNRQdLGVAA (KALNRQ[dL]GVAA-NH2) [therapeutic domain, D-amino acid substitution] | +257(17) % | –
4 | KALNRQLGdVAA (KALNRQLG[dV]AA) [therapeutic domain, D-amino acid substitution] | +160(23) % | –
5 | KALARQLGVAA [therapeutic domain, alanine substitution] | −61(2) % | –
6 | KALNRQLGVA [therapeutic domain without C-terminal Ala] | 0(5) % | –
7 | YARAAARQARA [synthetic protein transduction domain peptide PTD-4, reference compound] | +149(13) % | MK2 inhibition (in words) (MK2 [1]): least affected
8 | KALNdRQLGVAA (KALN[dR]QLGVAA-NH2) [therapeutic domain, D-amino acid substitution] | +206(7) % | –
9 | KALdNRQLGVAA (KAL[dN]RQLGVAA-NH2) [therapeutic domain, D-amino acid substitution] | −5(10) % | –
10 | WLRRIKA [cell penetrating peptide domain (non-functional)] | – | % of KALNRQLGVAA [SEQ ID NO: 13] Reaction Velocity (+VoSD) (MK2 [1]; [6]): 306%
11 | KKALRRQEAVDAL [AIP, autocamtide-2 related inhibitory peptide] | – | CaMKIV activity (CaMKIV): not affected; PKA activity (PKA): not affected; PKC activity (PKC): not affected; CaMKII activity ([5]; AIP 1 μM): inhibited completely; IC50 [5]: 0.1 µM
12 | KALNRdQLGVAA (KALNR[dQ]LGVAA-NH2) [therapeutic domain, D-amino acid substitution] | +176(5) % | –
13 | WLRRIKAWLRRIKA [protein transduction domain peptide] | −83(4) % | MK2 inhibition (in words) (MK2 [1]): potently inhibited
14 | YGRKKRRQRRR [protein transduction domain peptide, reference compound] | +44(17) % | inhibition of MK2 activity (MK2 [1]; 25 μM peptide): 48%; inhibition of MK2 activity (MK2 [1]; 100 μM peptide): 61%
15 | KALNRQLGVAA [unsubstituted therapeutic domain peptide] | +258(26) % | inhibition of MK2 activity (MK2 [1]; 100 μM peptide): 73%

The next lines start with results.

Row | percent change in MK2 reaction velocity versus unsubstituted peptide (MK2 [1]; [6]) | Compound | further results
16 | 46(7) % | KAdLNRQLGVAA (KA[dL]NRQLGVAA-NH2) [therapeutic domain, D-amino acid substitution] | –
17 | +273(22) % | KALNRQLGAAA [therapeutic domain, alanine substitution] | –
18 | −9(8) % | KKKALNRQLGVAA [therapeutic domain with two additional N-terminal Lys] | –
19 | +18(7) % | KALNRQAGVAA [therapeutic domain, alanine substitution] | –
20 | −28(5) % | KALNRQLAVAA [therapeutic domain, alanine substitution] | –
21 | +52(6) % | KAANRQLGVAA [therapeutic domain, alanine substitution] | –
